Source: patent US20170158755A1 (PROTHENA BIOSCIENCES, published 2017)

What was measured:
recombinant laminin 411 = recombinant laminin 411 (human, UniProt P07942 22-1786; P11047 34-1609, limits assumed); assay: cell-based or functional assay
[1] = molecular target: T1, LGde1, human LAMA4 G domain with LG1 deleted, displayed on 293 cells (human, UniProt Q16363 1036-1821); assay: flow cytometry, 650-labeled MCAM-Fc on 293 cells displaying the variant
T1 construct: pDisplay construct on 293 cells; vector tags and anchor not written here; also called LGde 1 (LG23)
T1 sequence: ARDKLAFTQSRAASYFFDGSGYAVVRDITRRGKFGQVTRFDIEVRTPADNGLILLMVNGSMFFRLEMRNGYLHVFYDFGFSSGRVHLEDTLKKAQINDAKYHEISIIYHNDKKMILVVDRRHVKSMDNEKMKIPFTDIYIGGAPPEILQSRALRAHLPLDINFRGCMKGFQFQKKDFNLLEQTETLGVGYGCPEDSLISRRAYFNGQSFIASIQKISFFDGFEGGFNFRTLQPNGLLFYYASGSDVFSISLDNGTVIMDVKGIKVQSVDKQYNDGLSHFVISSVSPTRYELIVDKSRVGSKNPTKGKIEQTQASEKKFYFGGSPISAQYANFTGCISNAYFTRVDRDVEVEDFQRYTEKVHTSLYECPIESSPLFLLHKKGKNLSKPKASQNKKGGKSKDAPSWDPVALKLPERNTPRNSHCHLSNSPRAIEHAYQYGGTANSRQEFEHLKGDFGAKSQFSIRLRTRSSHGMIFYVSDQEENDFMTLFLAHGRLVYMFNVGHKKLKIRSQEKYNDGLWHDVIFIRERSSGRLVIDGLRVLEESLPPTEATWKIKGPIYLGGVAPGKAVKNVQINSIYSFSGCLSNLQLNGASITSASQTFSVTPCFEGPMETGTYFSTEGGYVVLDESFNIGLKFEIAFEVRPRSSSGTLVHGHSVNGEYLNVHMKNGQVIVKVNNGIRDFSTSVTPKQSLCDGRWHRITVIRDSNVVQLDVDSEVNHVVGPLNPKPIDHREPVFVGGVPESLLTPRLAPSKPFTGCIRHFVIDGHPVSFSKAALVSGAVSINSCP
Text: (§1) LGde1 has a full-length G domain (i.e., LG1-5) with LG1 deleted, LGde2 has a full-length G domain with LG2 deleted, and LGde3 has a full-length G domain with LG3 deleted. Recombinant MCAM-Fc protein was able to specifically bind 293 cells expressing LAMA4 variants LG1-5, LG1-3, and LGde 1 (LG23), but not 293 cells expressing LAMA 4 variants LG4-5, LGde2 (LG13), or LGde3 (LG12).

[2] = molecular target: T2, LGde2, human LAMA4 G domain with LG2 deleted, displayed on 293 cells (human, UniProt Q16363 830-1821, limits assumed); assay: as above
T2 construct: pDisplay construct on 293 cells; vector tags and anchor not written here; also called LGde2 (LG13)
T2 sequence: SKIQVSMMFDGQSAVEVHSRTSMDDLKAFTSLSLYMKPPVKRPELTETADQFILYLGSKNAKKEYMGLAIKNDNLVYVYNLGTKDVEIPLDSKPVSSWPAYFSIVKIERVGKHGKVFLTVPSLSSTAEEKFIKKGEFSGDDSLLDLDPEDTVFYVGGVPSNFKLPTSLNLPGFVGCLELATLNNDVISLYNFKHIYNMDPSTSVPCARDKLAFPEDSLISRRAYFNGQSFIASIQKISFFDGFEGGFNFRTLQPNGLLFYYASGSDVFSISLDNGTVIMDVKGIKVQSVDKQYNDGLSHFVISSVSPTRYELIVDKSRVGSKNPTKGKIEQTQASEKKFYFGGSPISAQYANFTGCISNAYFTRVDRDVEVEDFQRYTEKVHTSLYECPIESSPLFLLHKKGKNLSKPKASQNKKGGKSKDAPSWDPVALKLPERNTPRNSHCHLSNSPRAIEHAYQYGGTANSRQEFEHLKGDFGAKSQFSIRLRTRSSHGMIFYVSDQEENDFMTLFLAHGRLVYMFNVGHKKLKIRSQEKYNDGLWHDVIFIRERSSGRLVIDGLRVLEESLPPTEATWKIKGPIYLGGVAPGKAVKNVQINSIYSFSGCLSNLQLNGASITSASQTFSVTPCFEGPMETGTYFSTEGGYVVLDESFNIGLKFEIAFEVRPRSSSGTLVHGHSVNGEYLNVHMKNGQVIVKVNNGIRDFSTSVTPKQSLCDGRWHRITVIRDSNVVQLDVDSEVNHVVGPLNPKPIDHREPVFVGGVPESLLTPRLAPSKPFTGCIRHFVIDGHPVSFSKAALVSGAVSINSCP
Text: as §1

[3] = molecular target: T3, LGde3, human LAMA4 G domain with LG3 deleted, displayed on 293 cells (human, UniProt Q16363 830-1821, limits assumed); assay: as above
T3 construct: pDisplay construct on 293 cells; vector tags and anchor not written here; also called LGde3 (LG12); LGde3 (LG23)
T3 sequence: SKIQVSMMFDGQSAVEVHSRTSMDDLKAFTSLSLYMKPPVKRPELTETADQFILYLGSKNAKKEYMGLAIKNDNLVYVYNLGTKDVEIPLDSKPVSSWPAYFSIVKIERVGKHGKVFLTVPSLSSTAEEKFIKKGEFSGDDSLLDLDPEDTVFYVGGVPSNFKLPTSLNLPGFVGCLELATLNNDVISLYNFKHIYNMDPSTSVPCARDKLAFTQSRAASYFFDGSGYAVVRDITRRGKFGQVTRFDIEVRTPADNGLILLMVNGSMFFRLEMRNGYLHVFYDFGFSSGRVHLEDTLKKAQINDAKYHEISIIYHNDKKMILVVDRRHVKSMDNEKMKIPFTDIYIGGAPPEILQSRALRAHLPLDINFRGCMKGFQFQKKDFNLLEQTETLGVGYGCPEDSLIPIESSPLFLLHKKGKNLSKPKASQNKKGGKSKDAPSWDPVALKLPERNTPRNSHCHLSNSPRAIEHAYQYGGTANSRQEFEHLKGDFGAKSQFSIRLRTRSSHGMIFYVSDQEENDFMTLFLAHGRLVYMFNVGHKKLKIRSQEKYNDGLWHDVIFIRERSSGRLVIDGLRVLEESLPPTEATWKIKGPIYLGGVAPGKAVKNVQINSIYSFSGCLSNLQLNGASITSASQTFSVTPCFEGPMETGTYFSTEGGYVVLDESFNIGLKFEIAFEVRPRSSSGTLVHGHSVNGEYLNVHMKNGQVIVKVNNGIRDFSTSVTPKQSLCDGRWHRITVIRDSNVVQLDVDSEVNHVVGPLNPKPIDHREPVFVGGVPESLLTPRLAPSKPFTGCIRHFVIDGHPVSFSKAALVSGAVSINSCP
Text: as §1

Chain of recombinant laminin 411 (chain, as listed by the source limits assumed, chain 1 of 3): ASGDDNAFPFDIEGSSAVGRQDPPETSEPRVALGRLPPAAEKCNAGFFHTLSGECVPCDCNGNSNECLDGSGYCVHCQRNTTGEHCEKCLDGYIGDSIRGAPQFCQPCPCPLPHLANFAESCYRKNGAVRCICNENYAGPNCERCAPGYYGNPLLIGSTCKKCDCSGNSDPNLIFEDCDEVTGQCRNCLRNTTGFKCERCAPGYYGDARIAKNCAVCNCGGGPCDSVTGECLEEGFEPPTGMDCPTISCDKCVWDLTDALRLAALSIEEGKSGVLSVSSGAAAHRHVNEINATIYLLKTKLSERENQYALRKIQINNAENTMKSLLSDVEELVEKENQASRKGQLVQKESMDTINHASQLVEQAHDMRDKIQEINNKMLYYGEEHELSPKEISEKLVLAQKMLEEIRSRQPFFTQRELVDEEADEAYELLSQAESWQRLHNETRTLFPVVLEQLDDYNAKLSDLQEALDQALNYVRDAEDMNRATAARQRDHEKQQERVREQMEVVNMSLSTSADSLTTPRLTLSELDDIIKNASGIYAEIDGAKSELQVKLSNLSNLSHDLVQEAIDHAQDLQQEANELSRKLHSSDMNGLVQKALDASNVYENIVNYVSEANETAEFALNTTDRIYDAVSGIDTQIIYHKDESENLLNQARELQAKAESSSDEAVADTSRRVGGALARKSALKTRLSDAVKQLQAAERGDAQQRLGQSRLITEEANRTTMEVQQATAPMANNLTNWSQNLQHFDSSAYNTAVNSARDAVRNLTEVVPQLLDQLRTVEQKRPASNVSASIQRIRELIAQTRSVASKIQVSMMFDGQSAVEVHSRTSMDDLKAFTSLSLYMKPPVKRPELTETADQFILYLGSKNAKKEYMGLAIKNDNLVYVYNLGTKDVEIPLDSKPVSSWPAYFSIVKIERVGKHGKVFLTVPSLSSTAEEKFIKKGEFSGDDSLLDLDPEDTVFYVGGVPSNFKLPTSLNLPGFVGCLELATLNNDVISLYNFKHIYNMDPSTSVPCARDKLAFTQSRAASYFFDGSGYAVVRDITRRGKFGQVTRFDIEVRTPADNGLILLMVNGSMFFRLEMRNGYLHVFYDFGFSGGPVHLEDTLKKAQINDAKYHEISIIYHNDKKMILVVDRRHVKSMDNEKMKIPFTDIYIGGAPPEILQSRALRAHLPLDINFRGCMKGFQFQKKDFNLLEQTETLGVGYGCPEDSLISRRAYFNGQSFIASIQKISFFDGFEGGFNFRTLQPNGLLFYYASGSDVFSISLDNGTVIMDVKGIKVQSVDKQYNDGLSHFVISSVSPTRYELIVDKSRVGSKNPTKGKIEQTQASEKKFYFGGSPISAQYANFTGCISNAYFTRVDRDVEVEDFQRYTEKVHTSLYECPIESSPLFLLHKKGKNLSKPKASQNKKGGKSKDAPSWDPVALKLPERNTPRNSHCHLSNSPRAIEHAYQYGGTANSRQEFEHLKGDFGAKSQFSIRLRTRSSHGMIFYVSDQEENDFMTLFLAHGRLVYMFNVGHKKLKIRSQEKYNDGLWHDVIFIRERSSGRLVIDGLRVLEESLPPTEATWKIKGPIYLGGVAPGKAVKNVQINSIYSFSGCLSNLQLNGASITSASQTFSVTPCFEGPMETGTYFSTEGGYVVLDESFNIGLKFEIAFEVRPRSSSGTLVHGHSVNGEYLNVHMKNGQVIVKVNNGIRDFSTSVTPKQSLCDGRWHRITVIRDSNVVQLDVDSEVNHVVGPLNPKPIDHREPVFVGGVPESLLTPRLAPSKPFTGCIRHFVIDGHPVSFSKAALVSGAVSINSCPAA
Chain of recombinant laminin 411 (P07942 22-1786 limits assumed, chain 2 of 3): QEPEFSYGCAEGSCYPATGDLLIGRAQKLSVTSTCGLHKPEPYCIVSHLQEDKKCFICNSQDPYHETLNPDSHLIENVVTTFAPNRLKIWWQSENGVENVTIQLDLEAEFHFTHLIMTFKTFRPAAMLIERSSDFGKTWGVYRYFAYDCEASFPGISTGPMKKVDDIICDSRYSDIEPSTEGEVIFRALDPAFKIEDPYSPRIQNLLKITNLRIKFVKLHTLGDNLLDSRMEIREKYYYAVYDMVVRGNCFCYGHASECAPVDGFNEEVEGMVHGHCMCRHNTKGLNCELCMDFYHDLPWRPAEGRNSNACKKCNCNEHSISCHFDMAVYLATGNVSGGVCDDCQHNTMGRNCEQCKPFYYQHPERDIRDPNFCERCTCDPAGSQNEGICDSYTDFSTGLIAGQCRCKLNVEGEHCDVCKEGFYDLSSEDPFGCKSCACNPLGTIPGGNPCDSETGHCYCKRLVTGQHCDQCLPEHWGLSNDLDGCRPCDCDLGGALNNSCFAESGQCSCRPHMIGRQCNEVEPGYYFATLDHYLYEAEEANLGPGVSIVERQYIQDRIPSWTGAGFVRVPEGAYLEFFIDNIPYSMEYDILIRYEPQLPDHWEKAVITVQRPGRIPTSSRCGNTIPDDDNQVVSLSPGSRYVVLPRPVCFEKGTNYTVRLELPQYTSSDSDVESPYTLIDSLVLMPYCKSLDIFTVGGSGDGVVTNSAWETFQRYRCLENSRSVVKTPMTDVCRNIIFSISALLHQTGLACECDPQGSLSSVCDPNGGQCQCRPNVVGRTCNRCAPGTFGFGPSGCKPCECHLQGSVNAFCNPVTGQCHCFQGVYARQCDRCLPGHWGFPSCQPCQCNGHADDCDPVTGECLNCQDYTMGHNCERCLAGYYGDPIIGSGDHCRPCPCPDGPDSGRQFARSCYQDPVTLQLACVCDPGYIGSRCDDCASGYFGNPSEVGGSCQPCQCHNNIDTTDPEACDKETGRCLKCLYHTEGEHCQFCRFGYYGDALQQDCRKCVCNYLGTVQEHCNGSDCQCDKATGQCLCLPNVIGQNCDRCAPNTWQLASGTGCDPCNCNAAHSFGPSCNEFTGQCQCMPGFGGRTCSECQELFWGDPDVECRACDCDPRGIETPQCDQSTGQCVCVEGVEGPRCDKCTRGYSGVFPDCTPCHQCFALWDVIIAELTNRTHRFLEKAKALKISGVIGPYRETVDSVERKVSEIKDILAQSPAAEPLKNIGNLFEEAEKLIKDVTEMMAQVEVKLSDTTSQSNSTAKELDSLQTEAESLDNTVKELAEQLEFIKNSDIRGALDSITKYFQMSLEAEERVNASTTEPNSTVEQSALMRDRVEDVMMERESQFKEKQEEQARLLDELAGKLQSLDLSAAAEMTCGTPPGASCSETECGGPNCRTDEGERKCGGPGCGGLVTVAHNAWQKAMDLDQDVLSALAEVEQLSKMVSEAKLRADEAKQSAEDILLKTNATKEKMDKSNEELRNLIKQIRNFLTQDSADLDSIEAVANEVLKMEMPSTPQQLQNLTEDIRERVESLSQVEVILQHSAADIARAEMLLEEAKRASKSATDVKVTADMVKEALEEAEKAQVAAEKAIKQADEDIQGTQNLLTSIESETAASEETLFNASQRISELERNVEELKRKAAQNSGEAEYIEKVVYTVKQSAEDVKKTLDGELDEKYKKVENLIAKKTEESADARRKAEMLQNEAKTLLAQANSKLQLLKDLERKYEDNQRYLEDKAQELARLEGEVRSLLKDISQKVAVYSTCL
Chain of recombinant laminin 411 (P11047 34-1609 limits assumed, chain 3 of 3): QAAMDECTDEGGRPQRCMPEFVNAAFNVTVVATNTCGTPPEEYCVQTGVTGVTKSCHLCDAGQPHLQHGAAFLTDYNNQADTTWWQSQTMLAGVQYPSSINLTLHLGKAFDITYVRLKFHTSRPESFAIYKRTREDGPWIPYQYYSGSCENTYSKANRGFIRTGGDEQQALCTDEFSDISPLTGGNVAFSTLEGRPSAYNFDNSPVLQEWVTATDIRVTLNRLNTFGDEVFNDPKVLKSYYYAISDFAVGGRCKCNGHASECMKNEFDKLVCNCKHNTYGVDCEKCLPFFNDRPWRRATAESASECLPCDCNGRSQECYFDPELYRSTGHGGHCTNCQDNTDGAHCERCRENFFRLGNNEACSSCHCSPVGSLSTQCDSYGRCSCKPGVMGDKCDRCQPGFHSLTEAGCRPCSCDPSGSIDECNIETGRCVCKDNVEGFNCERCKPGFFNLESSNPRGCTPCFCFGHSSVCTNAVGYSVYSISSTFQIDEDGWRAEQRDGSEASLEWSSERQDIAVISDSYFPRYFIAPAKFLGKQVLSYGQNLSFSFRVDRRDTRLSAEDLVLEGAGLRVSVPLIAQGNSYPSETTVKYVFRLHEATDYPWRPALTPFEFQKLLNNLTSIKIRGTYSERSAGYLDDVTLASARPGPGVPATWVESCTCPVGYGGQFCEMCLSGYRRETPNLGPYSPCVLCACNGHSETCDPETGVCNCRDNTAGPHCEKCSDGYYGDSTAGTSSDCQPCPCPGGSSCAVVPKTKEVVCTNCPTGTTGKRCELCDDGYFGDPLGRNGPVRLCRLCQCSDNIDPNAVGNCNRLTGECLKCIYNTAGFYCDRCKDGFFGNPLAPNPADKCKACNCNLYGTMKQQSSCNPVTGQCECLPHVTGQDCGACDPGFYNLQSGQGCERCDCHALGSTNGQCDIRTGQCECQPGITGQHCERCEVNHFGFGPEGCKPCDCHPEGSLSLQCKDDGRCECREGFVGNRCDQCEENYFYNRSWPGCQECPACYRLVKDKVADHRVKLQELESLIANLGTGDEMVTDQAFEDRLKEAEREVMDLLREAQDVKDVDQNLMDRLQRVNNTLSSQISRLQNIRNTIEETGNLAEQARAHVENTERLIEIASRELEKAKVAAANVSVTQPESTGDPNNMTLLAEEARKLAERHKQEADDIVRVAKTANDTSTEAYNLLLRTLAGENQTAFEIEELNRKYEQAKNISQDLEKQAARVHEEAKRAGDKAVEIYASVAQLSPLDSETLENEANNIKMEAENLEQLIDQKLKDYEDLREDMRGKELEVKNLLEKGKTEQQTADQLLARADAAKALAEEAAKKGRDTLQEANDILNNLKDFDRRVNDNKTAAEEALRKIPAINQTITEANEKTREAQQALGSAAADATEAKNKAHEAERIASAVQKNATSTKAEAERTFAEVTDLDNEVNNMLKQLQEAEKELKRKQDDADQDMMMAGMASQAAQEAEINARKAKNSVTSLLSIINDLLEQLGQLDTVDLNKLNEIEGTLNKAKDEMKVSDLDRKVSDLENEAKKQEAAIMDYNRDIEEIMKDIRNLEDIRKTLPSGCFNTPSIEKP

| laminin-411-induced pAkt activation (pAkt/Akt ratio by immunoblot) in WM266.4 cells, 20 ug/ml antibody (recombinant laminin 411) [% inhibition] | binding result [1] | binding result [2] | binding result [3] | Binder |
| --- | --- | --- | --- | --- |
| ~50 | – | – | – | mouse monoclonal antibody 19C12 (antibody, V domains shown, Mouse hybridoma antibody; Mouse IgG2b was used as its isotype control; also called m19C12) VH: QVQLQQSGAELVKPGASVKISCKASGYAFSTYWMNWVKQRPGEGLEWIGQIYPGDGDTNYNGKFKGKATLTADKSSSTAYMQLSSLTSEDSAVYFCARSDGYYDYWGQGTTLTVSS VL: NIVLTQSPASLAVSLGQRATISCRASESVDSYGTSFMHWYQQKPGQPPKLLICLASSLESGVPARFSGSGSRTDFTLTIDPVEADDAATYYCQQNNEDPPTFGAGTKLELKR |
| – | binds | no binding | no binding | mouse MCAM-Fc fusion protein (Fc fusion, UniProt Q8R2Y2 24-563, looked up, extracellular domain; Made in house; also called mMCAM-Fc; 650-conjugated mouse MCAM-Fc; not shown: human IgG1 (Fc part of the fusion)) VPGEEKQPVPTPDLVEAEVGSTALLKCGPSRASGNFSQVDWFLIHKERQILIFRVHQGKGQREPGEYEHRLSLQDSVATLALSHVTPHDERMFLCKSKRPRLQDHYVELQVFKAPEEPTIQANVVGIHVDRQELREVATCVGRNGYPIPQVLWYKNSLPLQEEENRVHIQSSQIVESSGLYTLKSVLSARLVKEDKDAQFYCELSYRLPSGNHMKESKEVTVPVFYPAEKVWVEVEPVGLLKEGDHVTIRCLTDGNPQPHFTINKKDPSTGEMEEESTDENGLLSLEPAEKHHSGLYQCQSLDLETTITLSSDPLELLVNYVSDVQVNPTAPEVQEGESLTLTCEAESNQDLEFEWLRDKTGQLLGKGPVLQLNNVRREAGGRYLCMASVPRVPGLNRTQLVSVGIFGSPWMALKERKVWVQENAVLNLSCEASGHPQPTISWNVNGSATEWNPDPQTVVSTLNVLVTPELLETGAECTASNSLGSNTTTIVLKLVTLTTLIPDSSQTTGLSTLTVSPHTRANSTSTEKKLPQPESKGVV |
